Assay results: paper doi:10.1101/2024.02.19.580884 (bioRxiv, 2024)
Values belong to the binder of their own block, whether it stands above or below them.

Columns and labels:
Experiment in all cases: pull-down
6xHis-AccC = biological target: T1, 6xHis-AccC (Bacillus subtilis 168, UniProt P49787 1-450)
T1 sequence (looked up): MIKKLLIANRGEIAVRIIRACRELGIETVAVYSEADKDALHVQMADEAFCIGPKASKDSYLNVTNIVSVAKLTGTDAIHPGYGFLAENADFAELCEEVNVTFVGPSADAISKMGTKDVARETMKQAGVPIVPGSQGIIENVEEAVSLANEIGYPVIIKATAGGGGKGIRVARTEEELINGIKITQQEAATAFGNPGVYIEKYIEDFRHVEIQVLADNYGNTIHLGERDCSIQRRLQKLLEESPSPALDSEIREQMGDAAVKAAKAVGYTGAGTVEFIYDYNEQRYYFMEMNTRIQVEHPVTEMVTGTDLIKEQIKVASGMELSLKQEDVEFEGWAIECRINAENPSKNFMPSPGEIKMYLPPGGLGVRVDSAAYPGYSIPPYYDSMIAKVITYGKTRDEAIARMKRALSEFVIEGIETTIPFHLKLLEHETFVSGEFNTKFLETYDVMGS

Strep-tagged AccC = biological target: T2, Strep-tagged AccC (Bacillus subtilis 168, UniProt P49787 1-450)
T2 sequence (looked up): T1 sequence (looked up)

Strep-tagged AccB = biological target: T3, Strep-tagged AccB (Bacillus subtilis 168, UniProt P49786 1-159)
T3 sequence (looked up): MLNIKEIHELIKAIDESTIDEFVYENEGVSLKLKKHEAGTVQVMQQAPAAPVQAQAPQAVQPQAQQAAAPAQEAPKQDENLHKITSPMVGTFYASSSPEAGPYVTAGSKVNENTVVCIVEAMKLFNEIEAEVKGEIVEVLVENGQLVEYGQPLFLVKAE

binding result (6xHis-AccC): binds
B1: GST-tagged RfaA (natural protein, Bacillus subtilis 168, UniProt P54519 1-135, looked up)
chain: MKDNSLLKMDHEDTHLGKVEIAPEVIEVIAGIAASEVDGVAEMRGNFATGVVERFGKVNHGKGVKVDLADDGITIDVYCVVTFGVSIPKVAASVQENIRQTLLNMTSLSINEINIHIVGIQFDTKAQEVQIDEEM

binding result (Strep-tagged AccC): binds
binding result (Strep-tagged AccB): binds
B2: 6xHis-SUMO-RfaA (natural protein, Bacillus subtilis 168, UniProt P54519 1-135, looked up)
chain: B1 chain
